Data published in a protein production outcome set (Wang et al. 2014).

Assay: label from the status in PepcDB records

Sequence: MAPSHDRGRVDRALARVSHAFSILIAALTFALPGVATAGDVPTFAVDPAWPKPLPNNWILGQVGGITVDWQGHIWVIHRPRSLTDDEKGASLNPPRSKCCVSAPPVLEFDTDGNLLRSWGGLGEGYEWVGREHGIEVDERGFVWVGGNADNDNAILKFTLDGKFVAQIGKIAPSLGSNDTTQLGKPAETAIDKAANEIYVADGYGNRRVIVFDATTLAYKRHWGAYGNKPNDDKQGPYDPKAPVAQQFGNPVHCVKLANDGLVYVCDRINNRIQVFRKDGTFVKEFFFEKNTLGNGAVWDIAIWPDPKQTWLLSADGENNEIRVIRRDDGSVVGSFGRNGRNAGQFHWVHAMAIDAKGNVYTAEVDTGKRIQKFKLTSDALK
- protein production: failed

Sequence: MAPVKLYMVEVIDKKEIAANERRSRENDVTGPEITHYYQVTFRLTTDDRKDLVLNIDKSSYQNIEPEMKGRLFMQGSRFVQFETDVPIDEQKLEHHHHHH
- protein production: not failed

Sequence: MAPVLENRRARHDYEILETYEAGIALKGTEVKSLRAGKVDFTGSFARFEDGELYLENLYIAPYEKGSYANVDPRRKRKLLLHKHELRRLLGKVEQKGLTLVPLKIYFNERGYAKVLLGLARGKKAYEKRREDKKEAVRRALEEL
- protein production: not failed

Sequence: MAQARCGGELLGLRAVLCVPPCPMPRLLPLTLLLLAAAAHAQSAAPLTIEQAMADPDWIGPSVDQAWWQWDGKQVQYLLKRAGSPVRDTYRQSTAGGTAERVADTARAGLDAANPSYDATRQRMLFARNGDIFLRDLRSGALTQLTRSNEIESRPQFASDGGAIWRAGNNWYHWRADGGTAQVAVVKAERDPDAAPKPDVLREHQLATLATLRRDKEQRDALRTQDDAWRRADATRAAAPVYLGDEVEIVDSALSPDGRHLLVVTQATNAEEGQAGKMPKYVTESGYEEFQEVRTRVGRNASVAHALWLVDVSAGTAKSLSFDPLPGIATDPLAALRKAAKRDALKGNRAVRVESNGDGSGPAVHWSDDGRNVAVEIRAVDNKDRWIASVDLDNAKLQPRHRLSDSAWINWDFNDFGWLPDNRTLWLLSEESGYSQLYTMEGNSKPRQRTRGKWEVSMPVPSADGSGMFFLCNQKWPGDYEVCKLDLRNDQLTEVTALNGVEGFSLSPNGQQLLVSYSGSYLPTQLAVVPATGGQATVLTDTRTPAFKAQPWIAPQYVQVPSKHGAGTVWGKYYGPTTPEPGKQYPIVMFVHGAGYLQNVSERYTPYFREQMFHNLLVQQGYIVLDLDYRASRGYGRDWRTAIYRNMGHTELEDYLDGLDWLVATKQGDRARAGIYGGSYGGFMTYMALFRSPGTFKAGAALRPVGDWMQYNHEYTSNILNTPELDPEAYKTSSPINYAEGLRDHLLIAHGMIDDNVFFKDSVDMTQKLMELHKDNWQLALYPLERHGFTRADSWLDEYKRILKLFNAQVKP
- protein production: failed

Sequence: MAQDIIDGINPTRMELLSLKNRTKLAVKGHGLLKEKRDALIKEFFDILDRVKGVREAAERSLKEANEALLEAQIAMGDLAVRKASLSVKESIDVDIKSRSVMGVSVPVTNVKMEERSIIDRGYSFSDTTIQLDEAAKKFEESIKFLIELGEVEKTIFLLAEEIEATKRRVNALEHIMIPRFENTEKYIDMRLQEMERENFVRLKMIRSTIEKKDNEAKEAAIEEEAAEVEA
- protein production: failed

Sequence: MAQFAVIGLGSFGATVATELTKLNHDVIGIDSVKRNVEDLSDQLTHAVIADASDEHVLEELNIQNCETVVVAIGEDIEASILCVLHLKNMGVPQIWVKAKTKAHHMILSHLHVDKIIHPEEDMGVRIAQALNYPMVSRYMALDNDHFIVKVEIPKHLNGVHLLGLINEMSDVKTILLKRGKDIIYEPDPTCPVQSKDILILEGHIDQLKKLSRRFLPHEKTKN
- protein production: failed

Sequence: MAQHFLLTQKAKTLSAFEIANISEAEAFDLLCEARWGSKENVVCSKCGVQHKAYFISIRKQWRCKHCHHTFSVTSGTIFANHKLPLKTYLYILIRFVNAVKGVSALEISRDAKINYRTAFVLCHKLRKALLESRDMQPLSGEVDMGGTYIHPAPRKANKKADRIDYRLKENQNPNKRCVVVAREHFSADEKAENSLYRGAKRSHVFVTYSETQSVVKNFAHAYIEKNSRINTDENTAYESLLLDYDLRTVNHKDEYRSDFGVTNNQAESFFSRFKRMYYGHVHKMSNTYLLNYANEIAYREDNRRKPNGWQFHDILGKCLETTNEQNEWCGYWQRKIFHQEVIWQ
- protein production: failed

Sequence: MAQKENNIIPMIFDEAFYRKMATQKWRQQDYKKAAEYYEKVLELSPKDFDIQQHYAQCLVKLNIGKKAERLFYENIVKDFHVAESFYELSQLNIELNEPNKAFLFGINYVILSEDKDFREMLEKTFEVAYTNEQKIELEAQLFSTQLLFQFLFSQGRLEEARTYILNQSYEIQQHRVIRNLLAMCYLYLGEYDSAKAMFEELLKEDNSDVHALCHYTLLLYNKKETEKYQKYLKILNKVVPLNDDETFKLGIVLSYLKQYRASQNLLYPLYKKGKFVSIQMYNALSFNFYYLGNKDESIEMWNKLTQISKVDVGYAPWVIEESKTVFESRVLPLLLDDNNHYRLYGIFLLHQLNGKEILMTEDIWSILESMNDYEKLYLTYLVQGLTLNKLDFIHRGMQRLYNFKKFKYNTSLFTDWINQAEMIISENVDLVDVDRYVAAFVYLSYRRSSQPLTKRQLMDDFNVSRYKLNKAIEFILSI
- protein production: failed

Sequence: MAQRERKAGVVKRDKADKWNHVETARYFRDLQENEVRTMHYLGLAYVVLSRRPNLQLKVPLSTQNYEDGAIVGAGERGGYALQLLFTCAANYPLARPLVEIVEKRNVSDAFEQVLRKEIDLILEEHLGLQMIVPVVTRLQITLNTEMKRQRF
- protein production: failed

Sequence: MAQRKNAKSSGNSSSSGSGSGSTSAGSSSPGARRETKHGGHKNGRKGGLSGTSFFTWFMVIALLGVWTSVAVVWFDLVDYEEVLGKLGIYDADGDGDFDVDDAKVLLGLKERSTSEPAVPPEEAEPHTEPEEQVPVEAEPQNIEDEAKEQIQSLLHEMVHAEHVEGEDLQQEDGPTGEPQQEDDEFLMATDVDDRFETLEPEVSHEETEHSYHVEETVSQDCNQDMEEMMSEQENPDSSEPVVEDERLHHDTDDVTYQVYEEQAVYEPLENEGIEITEVTAPPEDNPVEDSQVIVEEVSIFPVEEQQEVPPETNRKTDDPEQKAKVKKKKPKLLNKFDKTIKAELDAAEKLRKRGKIEEAVNAFKELVRKYPQSPRARYGKAQCEDDLAEKRRSNEVLRGAIETYQEVASLPDVPADLLKLSLKRRSDRQQFLGHMRGSLLTLQRLVQLFPNDTSLKNDLGVGYLLIGDNDNAKKVYEEVLSVTPNDGFAKVHYGFILKAQNKIAESIPYLKEGIESGDPGTDDGRFYFHLGDAMQRVGNKEAYKWYELGHKRGHFASVWQRSLYNVNGLKAQPWWTPKETGYTELVKSLERNWKLIRDEGLAVMDKAKGLFLPEDENLREKGDWSQFTLWQQGRRNENACKGAPKTCTLLEKFPETTGCRRGQIKYSIMHPGTHVWPHTGPTNCRLRMHLGLVIPKEGCKIRCANETRTWEEGKVLIFDDSFEHEVWQDASSFRLIFIVDVWHPELTPQQRRSLPAI
- protein production: failed

Sequence: MAQSNSRETFSSRLGFILAAAGAAVGLGNIWGFPTQAASNGGGAFLLVYLILIFVVAFPMLVVEMAIGRYGQANPVDSMRSLTSQPAAKKVGGFVGWVGLSVPSAVLAFYSIVGGWIICFLLGAMTDLFGFTAASAWLKGFSVERNLFGTLIFYVLTILIVQGGVKQGIERWSTRLMPALFVLFAVLFIYIMTQQGAWEGLKHYLIPDFEKVWDRKLILAAMGQGFFSLTIGGCSMLIYGSYLSKKENLPKMAMSVTLVDTAVAFIAGLVVLPAMFVAMNKGVQIYAQDGSLLSSDTLVFTVLPLMFDSLGLLGQIFAMVFFLLLTIAALTSSISMLECPVALVGERFNTRRTPTSWVLGGLIALFSVVIVYNFGALFGLVATLATQYLQPTAALMFCLFGGWVWQRDAKMKELQAGFPELQQSLFGKIWPWYVKFVCPVLVATVIWASFG
- protein production: failed

Sequence: MAQVEAPVIGITVLYFLAIIIIGYYSRQRLKSATDYYVAGRQVGAVVNGLALESTYLSPASMLGLPAYIFILGYPFWWAMSAIIAGMPIATLLTASALRKYAPTSFADYYADRYNDQRLRWLVGIVTVIGAVLYITLSLVGMALFLLAVAKVPYIIGLIVGTIIVMLYVVWGGMIATSWNAAFQAFLMTVAAVIAAAVIVIKLGGLGGFYEAVLANNPKFWNTPSDPEPPHLLSGTWIAVIGWFFVWHYGFATMPYTVVRFFTTMDIKTARRSIFWCTLAAGIFYMALEIIGAASKLMIETGPMGGEGANAVKILQSYMAQYGVGGWTDYSMIAAVEALQNPWVLGILCAGGLAIAMSTAAGWVMVVNTLLTRDWGDMLLKSKFAKEKPVTLARIISVIFLIVGFLVAINPPGLVLDLSGWAFVVIISALGPGLVLGLWWKRATRAAMWTTAIVMTPLHLYAWLKAKLVLGHHAFFFLNDVLFGNAKALITPHQVWAIPVGFLLFIIVSLITKPVEEEAVQKYCVELTKEV
- protein production: failed

Sequence: MAQVNKQAIAAAFGRAASQYEQHASLQQHSADALLTLLTGRQFASVLDAGCGPGRMSRYWRERGSEVTALDLSLPMLQQARDRQAAHHYLLADIEAIPHDAEVFDLAWSNLAVQWCGDLRDALSELYRVVRPGGVVAFTTLCQGSLPELRQAWQAVDNRAHANSFLPEEAIDHALRGWRAFRHTQAMTLWFEDALSAMRSLKGIGATHLHEGRESDVLTRARLRQIQLAWPQRQGKYPLTYHLFMGVIERD
- protein production: failed

Sequence: MARANFEPYGRDFPGGRATGRFCNGRLSSDFTSEAYGLKPTVPAYLDPSYNISDFATGVCFASAGTGYDNSTADVLGVIPLWKEVEYFKEYQSNLSAYLGHRRAAKIIRESLYIVSIGTNDFLENYYTLPDRRSQFSISQYQDFLVEIAEVFLKDIYRLGARKMSFTGISPMGCLPLERVTNLDDPFSCARSYNDLAVDFNGRLRRLVTKLNRELTGIKIYFANPYDIMWDIVTKPNLYGLEISSSACCGTGLFEMGFLCGQDNPLTCSDANKFVFWDAFHPTERTNQIVSDHFFKHLKNLFH
- protein production: failed

Sequence: MARAVHRSGLVALGIATALMASCAFAAKDVVVAVGSNFTTLDPYDANDTLSQAVAKSFYQGLFGLDKEMKLKNVLAESYTVSDDGITYTVKLREGIKFQDGTDFNAAAVKANLDRASDPANHLKRYNLYKNIAKTEAIDPTTVKITLKQPFSAFINILAHPATAMISPAALEKYGKEIGFYPVGTGPYELDTWNQTDFVKVKKFAGYWQPGLPKLDSITWRPVADNNTRAAMLQTGEAQFAFPIPYEQATLLEKNKNIELMASPSIMQRYISMNVTQKPFDNPKVREALNYAINRPALVKVAFAGYATPATGVVPPSIAYAQSYKPWPYDPVKARELLKEAGYPNGFSTTLWSSHNHSTAQKVLQFTQQQLAQVGIKAQVTAMDAGQRAAEVEGKGQKESGVRMFYTGWSASTGEADWALSPLFASQNWPPTLFNTAFYSNKQVDDFLAQALKTNDPAEKTRLYKAAQDIIWQESPWIPLVVEKLVSAHSKNLTGFWIMPDTGFSFEDADLQ
- protein production: not failed

Sequence: MARGELPRASISDTIPMTMASIDAGSVRFTARADKRHLNPLGGVHGGFAATVLDSVTGCAIHSILEAGVGYGTVDLSVKRVKAVPEDTPLVAEGRVLHVPCAIGSQRADLMLAPPRLGRDRRCPAGHAPAGAARAACAPQGRLTPMRRPLNAAPAARRCGRTGTDRSRAPGRACAAPWSSAC
- protein production: failed

Sequence: MARIRIEAPGTIVYETLMDVRIGDINYANHLGNDALLRIAQEARLRLFRDWGYVDELHIDGVGIVVADAAICYLSEAFLGDVLRILVGTADIHRKGLDFIYQVIDDNSGREVARLKTGIVFFDYPARQVALMPESFSAKLGQLEHHHHHH
- protein production: not failed

Sequence: MARLARLGEPFALATVVASSGSSPRKAGAKMLIRGDGSALGTVGGGHVEQDTLAAARASLAEGAPRTLEFVLTEEHGYACGGSMSVFIEPQGRRPLLVMFGAGHVGRAVTALAHGCGFRVIVVDERPEYAVPALLPGADEIVCVPVGAAFARLTLDRESFAVIATPGHVHDFDAVRGCLATEVGFIGLLGSRRKREALMKTLTEEGYEAGRQARVVTPVGLDIGAQTPEEIAVSIVGQLVKLRRQA
- protein production: failed
